# PMC2757144 (Molecular cell, 2009)
# T1: NSBP1 (HMGN5), wild type, recombinant (mouse, UniProt Q9JL35 1-406)
# T1 sequence (looked up): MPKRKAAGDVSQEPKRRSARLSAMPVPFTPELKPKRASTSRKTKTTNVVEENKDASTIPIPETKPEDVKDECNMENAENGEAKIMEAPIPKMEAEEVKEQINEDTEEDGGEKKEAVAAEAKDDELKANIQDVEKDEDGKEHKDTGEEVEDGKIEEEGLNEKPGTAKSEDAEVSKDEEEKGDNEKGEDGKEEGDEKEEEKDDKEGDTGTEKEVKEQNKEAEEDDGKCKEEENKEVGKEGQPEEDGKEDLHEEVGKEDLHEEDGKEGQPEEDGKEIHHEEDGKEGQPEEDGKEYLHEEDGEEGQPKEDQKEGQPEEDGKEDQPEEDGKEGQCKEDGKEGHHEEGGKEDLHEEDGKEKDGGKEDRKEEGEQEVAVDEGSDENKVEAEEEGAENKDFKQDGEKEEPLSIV
# T2: HMGB1 (from mouse thymus) (mouse, UniProt P63158 1-215)
# T2 sequence (looked up): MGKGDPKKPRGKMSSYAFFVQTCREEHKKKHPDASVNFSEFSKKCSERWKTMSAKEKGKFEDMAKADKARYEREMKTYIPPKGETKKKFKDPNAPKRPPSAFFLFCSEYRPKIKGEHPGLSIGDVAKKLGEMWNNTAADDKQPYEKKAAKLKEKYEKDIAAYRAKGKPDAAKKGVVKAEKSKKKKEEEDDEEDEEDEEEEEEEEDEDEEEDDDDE
# Tests used:
# [1] = target: T1, NSBP1 (HMGN5), wild type, recombinant; test: cross-linking
# [2] = target: T2, HMGB1 (from mouse thymus); test: cross-linking
binder,measurement,setting,value
"linker histone H5 (native, from chicken erythrocytes) (natural protein, UniProt P02259 1-190, looked up) MTESLVLSPAPAKPKRVKASRRSASHPTYSEMIAAAIRAEKSRGGSSRQSIQKYIKSHYKVGHNADLQIKLSIRRLLAAGVLKQTKGVGASGSFRLAKSDKAKRSPGKKKKAVRRSTSPKKAARPRKARSPAKKPKATARKARKKSRASPKKAKKPKTVKAKSRKASKAKKVKRSKPRAKSGARKSPKKK",binding result,[1],binds
same,binding result,[2],binds
